Molecular target: T1, mCherry tagged HsC53 (human, UniProt Q96JB5 1-506)
T1 construct: C53 (CDK5RAP3), Homo sapiens; also called human C53; mCh-HsC53; source: E. coli Rosetta2 (DE3) pLysS, purified (HisTrap, ion exchange, SEC)
T1 sequence (looked up): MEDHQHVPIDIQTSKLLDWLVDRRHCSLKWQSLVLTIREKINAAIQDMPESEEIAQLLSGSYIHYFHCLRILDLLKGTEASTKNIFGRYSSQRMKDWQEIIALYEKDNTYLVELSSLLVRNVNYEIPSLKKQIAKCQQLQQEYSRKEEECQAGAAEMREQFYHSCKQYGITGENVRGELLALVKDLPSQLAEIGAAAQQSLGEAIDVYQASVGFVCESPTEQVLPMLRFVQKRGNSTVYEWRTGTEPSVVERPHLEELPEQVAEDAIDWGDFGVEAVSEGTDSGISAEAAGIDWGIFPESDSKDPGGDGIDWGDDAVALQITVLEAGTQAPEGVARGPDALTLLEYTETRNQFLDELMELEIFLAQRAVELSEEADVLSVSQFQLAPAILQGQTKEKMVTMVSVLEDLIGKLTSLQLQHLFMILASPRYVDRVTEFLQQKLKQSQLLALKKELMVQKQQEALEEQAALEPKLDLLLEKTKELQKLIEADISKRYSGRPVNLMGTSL
Assay: microscopy-based on-bead protein-protein interaction assay; GST-tagged bait (2 µM) on Glutathione Sepharose 4B beads, 1 µM mCherry tagged partner with or without competitor, 25 mM HEPES pH 7.5, 150 mM NaCl, 1 mM DTT, 30-60 min at RT, confocal imaging; fluorescence normalized to the control condition
Conditions: both partners purified

B1: GST-GABARAP (natural protein, human, UniProt O95166 1-117, looked up)
chain: MKFVYKEEHPFEKRRSEGEKIRKKYPDRVPVIVEKAPKARIGDLDKKKYLVPSDLTVGQFYFLIRKRIHLRAEDALFFFVNNVIPPTSATMGQLYQEHHEEDFFLYIAYSDESVYGL
notes: GABARAP, human ATG8 isoform; also called human ATG8 isoform GABARAP; source: E. coli Rosetta2 (DE3) pLysS; in bacterial lysate (pull-downs) and purified (on-bead assays)
B1: binds.
